Experimental data from the supplement of paper PMC10567573.

B1: ZNF263 (parent)
chain: KPYKCTLCGENFSHRSNLIRHQRI

Variants of: B1
Assay: protein stability index of a GFP-peptide fusion (GPS, HEK-293T) (PSI 1-6); higher = more stable
Conditions: c terminus: a fixed tail appended
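Note: lentivirally expressed fusions sorted by FACS into six bins by GFP to DsRed ratio, PSI derived from sequencing read proportions per bin multiplied by bin number.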

Row | Variant | protein stability index
1 | KPYKCTLCGENFSHRSNLIRHQRV [I24V] | 2.63
2 | KPYKCTLCGENFSHRSNLIRHQRW [I24W] | 2.4
3 | KPYKCTLCGENFSHRSNLIRHQRY [I24Y] | 2.51
4 | KPYKCTLCGENFSHRSNLIRHQRM [I24M] | 2.74
5 | KPYKCTLCGENFSHRSNLIRHQRQ [I24Q] | 4.56
6 | KPYKCTLCGENFSHRSNLIRHQRF [I24F] | 1.93
7 | KPYICTLCGENFSHRSNLIRHQRI [K4I] | 2.87
8 | KPYGCTLCGENFSHRSNLIRHQRI [K4G] | 2.35
9 | KPYWCTLCGENFSHRSNLIRHQRI [K4W] | 2.35
10 | KPYFCTLCGENFSHRSNLIRHQRI [K4F] | 2.01
11 | KPYPCTLCGENFSHRSNLIRHQRI [K4P] | 1.96
12 | KPYDCTLCGENFSHRSNLIRHQRI [K4D] | 1.75
13 | KPYKCTLCGENFSERSNLIRHQRI [H14E] | 2.95
14 | KPYKCTLCGENFSGRSNLIRHQRI [H14G] | 1.97
15 | KPYKCTLCGENFSCRSNLIRHQRI [H14C] | 2.68
16 | KPYKCTLCGENFSQRSNLIRHQRI [H14Q] | 1.9
17 | KPYKCTLCGENFSSRSNLIRHQRI [H14S] | 3.56
18 | KPYKCTLCGENFVHRSNLIRHQRI [S13V] | 2.39
19 | KPYKCTLCGENFAHRSNLIRHQRI [S13A] | 2.87
20 | KPYKCTLCGENFIHRSNLIRHQRI [S13I] | 2.67
21 | KPYKCTLCGENFNHRSNLIRHQRI [S13N] | 2.35
22 | KPYKCTTCGENFSHRSNLIRHQRI [L7T] | 2.51
23 | KPYKCTQCGENFSHRSNLIRHQRI [L7Q] | 3.02
24 | KPYKCTGCGENFSHRSNLIRHQRI [L7G] | 2.18

Row | Variant | protein stability index
25 | KPYKCTECGENFSHRSNLIRHQRI [L7E] | 3.63
26 | KPYKCTLCGECFSHRSNLIRHQRI [N11C] | 3.11
27 | KPYKCTLCGETFSHRSNLIRHQRI [N11T] | 3.59
28 | KPYKCTLCGENFSHRSNLIRHQDI [R23D] | 2.73
29 | KPYKCTLCGENFSHRSNLIRHQFI [R23F] | 1.66
30 | KPYKCTLCGENFSHRSNLIRHQVI [R23V] | 2.01
31 | KPYKCTLCGENYSHRSNLIRHQRI [F12Y] | 1.44
32 | KPYKCTLCGENCSHRSNLIRHQRI [F12C] | 2.71
33 | KPYKCTLCGENKSHRSNLIRHQRI [F12K] | 1.58
34 | KPYKCTLCGENFSHRSNLIRHTRI [Q22T] | 2.54
35 | KPYKCTLCGENFSHRSNLIRHGRI [Q22G] | 1.86
36 | KPYKCTLCGENFSHRSNLIRHCRI [Q22C] | 2.44
37 | KPYKCTLCGENFSHRSNLIRHIRI [Q22I] | 2.72
38 | KPYKCTLCGENFSHRSNLIRHSRI [Q22S] | 2.54
39 | KPNKCTLCGENFSHRSNLIRHQRI [Y3N] | 2.47
40 | KPLKCTLCGENFSHRSNLIRHQRI [Y3L] | 2.64
41 | KPRKCTLCGENFSHRSNLIRHQRI [Y3R] | 3.54
42 | KPYKCTLCGENFSHESNLIRHQRI [R15E] | 2.69
43 | KPYKCTLCGENFSHHSNLIRHQRI [R15H] | 2.15
44 | KPYKCTLCGENFSHVSNLIRHQRI [R15V] | 2.88
45 | KPYKCTLCGENFSHISNLIRHQRI [R15I] | 2.73
46 | KPYKCTLCGENFSHWSNLIRHQRI [R15W] | 2.54
47 | KPYKCTLCGENFSHTSNLIRHQRI [R15T] | 1.59
48 | KPYKCTLDGENFSHRSNLIRHQRI [C8D] | 2.62

Row | Variant | protein stability index
49 | KPYKCTLIGENFSHRSNLIRHQRI [C8I] | 2.58
50 | KPYKCTLGGENFSHRSNLIRHQRI [C8G] | 2.45
51 | KPYKCTLCGENFSHRQNLIRHQRI [S16Q] | 2.81
52 | KPYKCTLCGENFSHRINLIRHQRI [S16I] | 2.41
53 | KPYKCTLCGENFSHRCNLIRHQRI [S16C] | 2.41
54 | KPYKCLLCGENFSHRSNLIRHQRI [T6L] | 2.21
55 | KPYKCQLCGENFSHRSNLIRHQRI [T6Q] | 2.21
56 | KPYKCCLCGENFSHRSNLIRHQRI [T6C] | 2.1
57 | KPYKCPLCGENFSHRSNLIRHQRI [T6P] | 2.42
58 | KPYKCYLCGENFSHRSNLIRHQRI [T6Y] | 1.98
59 | KPYKCSLCGENFSHRSNLIRHQRI [T6S] | 3.17
60 | KPYKCTLCGCNFSHRSNLIRHQRI [E10C] | 1.94
61 | KPYKCTLCGINFSHRSNLIRHQRI [E10I] | 2.35
62 | KPYKCTLCGFNFSHRSNLIRHQRI [E10F] | 2.36
63 | KPYKCTLCGRNFSHRSNLIRHQRI [E10R] | 2.97
64 | KPYKCTLCGENFSHRSNLIRNQRI [H21N] | 3.21
65 | KPYKCTLCGENFSHRSNLIRGQRI [H21G] | 1.83
66 | KPYKCTLCGENFSHRSNLIRWQRI [H21W] | 3.53
67 | KPYKCTLCGENFSHRSNLIRAQRI [H21A] | 2.13
68 | KPYKCTLCGENFSHRSNLIRIQRI [H21I] | 1.58
69 | KPYKCTLCGENFSHRSNLIRPQRI [H21P] | 1.69
70 | KPYKCTLCCENFSHRSNLIRHQRI [G9C] | 2.16
71 | KPYKCTLCSENFSHRSNLIRHQRI [G9S] | 2.38
72 | KPYKCTLCGENFSHRSNLIQHQRI [R20Q] | 2.6

Row | Variant | protein stability index
73 | KPYKCTLCGENFSHRSNLIIHQRI [R20I] | 1.81
74 | KQYKCTLCGENFSHRSNLIRHQRI [P2Q] | 2.09
75 | KIYKCTLCGENFSHRSNLIRHQRI [P2I] | 2.33
76 | KPYKRTLCGENFSHRSNLIRHQRI [C5R] | 1.86
77 | KPYKPTLCGENFSHRSNLIRHQRI [C5P] | 2.44
78 | KPYKATLCGENFSHRSNLIRHQRI [C5A] | 2.52
79 | KPYKQTLCGENFSHRSNLIRHQRI [C5Q] | 3.12
80 | KPYKCTLCGENFSHRSNLCRHQRI [I19C] | 4.18
81 | KPYKCTLCGENFSHRSNLDRHQRI [I19D] | 2.74
82 | KPYKCTLCGENFSHRSNLHRHQRI [I19H] | 2.33
83 | KPYKCTLCGENFSHRSNLNRHQRI [I19N] | 1.77
84 | KPYKCTLCGENFSHRSNLRRHQRI [I19R] | 2.9
85 | KPYKCTLCGENFSHRSNGIRHQRI [L18G] | 1.98
86 | KPYKCTLCGENFSHRSNAIRHQRI [L18A] | 2.35
87 | KPYKCTLCGENFSHRSNTIRHQRI [L18T] | 1.72
88 | RPYKCTLCGENFSHRSNLIRHQRI [K1R] | 2.66
89 | MPYKCTLCGENFSHRSNLIRHQRI [K1M] | 2.65
90 | EPYKCTLCGENFSHRSNLIRHQRI [K1E] | 3.25
91 | SPYKCTLCGENFSHRSNLIRHQRI [K1S] | 2.81
92 | KPYKCTLCGENFSHRSLLIRHQRI [N17L] | 2.77
93 | KPYKCTLCGENFSHRSPLIRHQRI [N17P] | 1.87
94 | KPYKCTLCGENFSHRSFLIRHQRI [N17F] | 2.08
